“Also recorded” adds a separate entry of the source.
Legend:
[1] = tested on: gliadin (QPQLPY sequence); experiment: Gluten content of gliadin digests by Elisa-G12; assay type: biochemical, wheat
Protocol: Next it has been evaluated whether recombinant E40 enzymatic activity efficiently neutralizes: i) the capacity of gluten proteins to bind G12 antibodies, and ii) the stimulation of a T-cell-mediated immune response, measured by IFN-γ release. To this purpose, gliadin proteins were suspended in 1 ml of 0.1M ammonium acetate and digested with E40 alone, or with E40 co-incubated with the gastrointestinal proteases, pepsin and trypsin/chymotrypsin, at different pHs and time points, as detailed in Table 1.
All enzymes were added in w/w ratio 1:20 (enzyme:protein) and incubated at 37° C., at indicated pH and incubation time. E40/pepsin/chymotrypsin-digested gliadins were deamidated by tTGase (Sigma Aldrich), as previously described^4. Briefly, the enzymatic gliadin digests (500 μg/ml) were incubated with 2 U of guinea pig tTG (T-5398, Sigma, St. Louis, Mo., USA) at 37° C. for 2 hours in PBS with 1 mmol/L CaCl2.
To estimate the effect of E40 digestion on the immunological potential of wheat, gluten content of samples A-L was determined by monoclonal antibodies specific for QPQLPY sequence (Elisa-G12)^10.

pepsin = molecular target: T1, pepsin (Sus scrofa, UniProt P00791); experiment: Resistance of E40 to pepsin (suc-Ala-Ala-Pro-Phe-pNA cleavage); assay type: biochemical; settings: pH 4, 4.5 and 5; protease 1:2 (w/w) versus E40; 110 minutes, 37° C.
T1 construct: purchased Sigma-Aldrich (Milan, Italy)
T1 sequence (P00791 60-385): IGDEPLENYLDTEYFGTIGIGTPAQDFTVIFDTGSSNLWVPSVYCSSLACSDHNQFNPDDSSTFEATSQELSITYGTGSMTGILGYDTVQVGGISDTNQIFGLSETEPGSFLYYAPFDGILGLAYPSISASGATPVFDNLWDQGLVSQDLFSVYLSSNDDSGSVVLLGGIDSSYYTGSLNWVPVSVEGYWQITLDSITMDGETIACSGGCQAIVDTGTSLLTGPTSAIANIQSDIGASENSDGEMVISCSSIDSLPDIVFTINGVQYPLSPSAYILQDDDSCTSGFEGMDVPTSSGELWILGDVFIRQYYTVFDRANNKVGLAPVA
Protocol: The resistance of recombinant E40, obtained by the method of the invention, to the proteolytic activity of gastric (pepsin) and duodenal (trypsin) digestive proteases was further evaluated (FIG. 4), using suc-Ala-Ala-Pro-Phe-pNA as substrate. Aqueous solutions of E40 enzyme, alone or in combination with pepsin and/or trypsin (0.2 mg/ml E40, 0.1 mg/ml Pepsin or Trypsin), were diluted in citrate-phosphate buffer containing suc-Ala-Ala-Pro-Phe-pNA at pH 4, 4.5 and 5 for pepsin, and at pH 6 and 7 for trypsin. Final concentrations in reaction mix were: 200 μM substrate, 1-4 nM E40 for incubations at pH 4 to 5, or 4 nM and 7 nM for incubations at pH 6 or 7, respectively (E40 concentration was adjusted according to optimum pH). The digestive protease was maintained in the ratio 1:2 (w/w) versus E40.
Reactions (200 μl volume in 96-wells flat bottom ptiter plates) were protracted for 110 minutes at 37° C. Absorbance was monitored every 10 min for determining the enzymatic activity. Pepsin and trypsin without E40 were processed in the same way and tested in the same condition as reference control. Each analysis was carried out in duplicate.

peanut proteins = experiment: In vitro digestion of peanut proteins (SDS-PAGE, HPLC); assay type: biochemical; settings: 1:20 enzyme:substrate, up to 120 min
Protocol: Degradation of peanuts proteins incubated in the presence of recombinant E40 has been assessed by SDS-PAGE and HPLC analysis. Results are shown in FIG. 9 (A: SDS-PAGE; B: HPLC analysis).

[2] = tested on: CD4+ T-cell lines from intestinal biopsies of CD patients; experiment: IFN-γ production of gliadin reactive intestinal T-cell lines exposed to gliadin digests; assay type: cell-based, human; settings: samples A-H; digests at 50 and 100 μg/ml; 48 hours; assay sensitivity 32 pg/ml
Protocol: In order to evaluate the capability of gliadin preparations to activate a T-cell response, the different gliadin enzymatic digests (samples A-L in FIGS. 7A and 7B) deamidated by tTG treatment, were assayed on CD4+ T-cell lines previously established from intestinal biopsies of CD patients^11 (Table 3).
Briefly, intestinal mononuclear cells were stimulated with irradiated autologous peripheral blood mononuclear cells (PBMCs) and deamidated pepsin-chymotrypsin digested gliadin extracted from the hexaploid wheat. Growing T cells were kept in culture by repeated stimulation with heterologous irradiated PBMCs and PHA, and IL-2 as a growth factor. […] In the functional assays, the immune response of TCLs to gliadin enzymatic digests (samples A-L, Table 1 and FIGS. 7A and B) was assayed by detecting IFN-γ production. T cells (3×10^4) were co-incubated with irradiated autologous EBV-transformed, B-lymphoblastoid cell lines (B-LCLs, 1×10^5), in 200 μL of complete medium (X-Vivol5 supplemented with 5% human serum and penicillin-streptomycin antibiotics, all reagents supplied by Lonza-BioWhittaker, Verviers, Belgium) in U-bottom 96-well plates. After a 48 hours incubation, cell supernatants (50 μL) were collected for IFN-γ determination. […] IFN-γ was measured by a classic sandwich ELISA using purified and biotin-conjugated anti-IFN-γ Abs purchased from Mabtech (Nacka Strand, Sweden). […]

33-mer gliadin peptide = experiment: Digestion of 33-mer gliadin peptide monitored by LC-MS/MS; assay type: biochemical
Chain of 33-mer gliadin peptide (as listed by the source): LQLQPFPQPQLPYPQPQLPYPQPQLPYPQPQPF
Protocol: The 33-mer gliadin peptide degradation was monitored by LC-MS/MS, before (FIG. 5, panel A) and after (FIG. 5, panels B-E) digestion by recombinant E40. Digestion was performed in U-bottom 96-wells microtiter plate; 33-mer was diluted in citrate phosphate buffer (pH 5) to 5 mg/ml, mixed with the enzyme preparation comprising recombinant E40 diluted in the same buffer (1:48 enzyme vs substrate molar ratio) and incubated at 37° C. At the time points 0, 15, 30 and 60 minutes, aliquots (10 μl) were taken, and reactions were stopped by boiling for 3 minutes before being analyzed by LC-MS/MS.
Samples were analyzed by HPLC system Accela Instrument (Thermo Fisher Scientific, San Jose, Calif.) coupled to both UV detector and LTQ-XL ion trap mass spectrometer (Thermo Fisher Scientific). […] E40 cleaving site occurs between F-P and Q-L residues of gliadin, leading to short peptides lacking of T-cell stimulatory capacity (FIG. 5, F)^3. This finding was also observed at more diluted E40 concentration (1:96, molar ratio): in that case complete 33-mer degradation took 30 minutes (not shown).

B1: E40: Actinoallomurus endopeptidase with glutenase activity, sequence comprising SEQ ID NO: 1; recombinant histidine-tagged form SEQ ID NO: 2 from S. lividans (protein)
chain: AAPSGLSPANLQSAYKLPSSTAGSGQTVAIVDAYDAPTAEADLNVYRSQFGLGACTTANGCFKKVDQNGGTSYPRKDGGWAQEISLDLDMVSAVCPNCKIVLVEAKTNSFANLGTAENTAASLANVISNSYGGSDASDASYGSYYNHPGKAITVSSGDAGYGVEYPASSHYVTAVGGTSLRTASTSRGWSETAWSGAGSGCSAYNTALSGQSGLTGCSRRAVADVSAVADPATGVAVYDSTAYQGQSGWMVFGGTSVAAPIIGGVYGLAANAASIDNNYPYAHTSSLFDVTSGSNGTCTTTKWCTAGTGWDGPTGLGTPNGTGAFGHHHHHH
modifications: Actinoallomurus
B1 was tested, and the “gluten content (Elisa-G12)” value ([1]; sample A: E40 (1 h) (pH 4)) was 1.72 ppm (ng/mL), the “gluten content (Elisa-G12)” value ([1]; sample B: E40 (2 h) (pH 4)) was 2.26 ppm (ng/mL) and the “gluten content (Elisa-G12)” value ([1]; sample C: E40 + Pepsin (1 h) (pH 4)) was 5.23 ppm (ng/mL). The “gluten content (Elisa-G12)” value ([1]; sample D: E40 + Pepsin (2 h) (pH 4)) was 5.42 ppm (ng/mL), the “gluten content (Elisa-G12)” value ([1]; sample E: E40 + Pepsin (2 h) (pH 4), Trypsin + Chymotrypsin (2 h) (pH 6)) was 4.09 ppm (ng/mL) and the “gluten content (Elisa-G12)” value ([1]; sample F: E40 + Pepsin (2 h) (pH 4), Trypsin + Chymotrypsin (4 h) (pH 6)) was 2.68 ppm (ng/mL). The “gluten content (Elisa-G12)” value ([1]; sample G: E40 + Pepsin (1 h) (pH 4), Trypsin + Chymotrypsin (2 h) (pH 6)) was 1.68 ppm (ng/mL), the “gluten content (Elisa-G12)” value ([1]; sample H: E40 + Pepsin (1 h) (pH 4), Trypsin + Chymotrypsin (4 h) (pH 6)) was 2.05 ppm (ng/mL) and the “gluten content of E40 digested samples” value ([1]; samples from A to H) was “below 20 ppm”. For the same molecule, the “E40 cleaving activity in presence of pepsin” value (pepsin) was “unaffected; also recorded: slightly enhanced”, the peanut protein digestion (peanut proteins) was “degradation of peanut proteins” and the “IFN-γ production of T cells exposed to E40-digested gliadins” value [2] was “no detectable IFN-γ production”. The “time to complete disappearance of native 33-mer peptide signal” value (33-mer gliadin peptide; 1:48 enzyme vs substrate molar ratio, pH 5, 37° C.) was 15 min and the “time to complete 33-mer degradation” value (33-mer gliadin peptide; 1:96 molar ratio) was 30 min.
